The nanobody polyreactivity screen of Harvey et al. (2022)

Test: yeast display, Sf9 membrane polyspecificity reagent, FACS + sequencing; frameworks hold sequencing errors
Method in brief: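 Synthetic nanobody libraries on Saccharomyces cerevisiae BJ5465 were galactose-induced for 36–48 hours, stained 1 hour at 4 °C with 10% biotinylated, detergent-solubilized Sf9 membrane reagent and enriched on streptavidin microbeads. FACS then separated cells into low and high (top ~1%) gates by anti-HA (expression) and streptavidin (reagent binding) fluorescence. Genes were colony-PCR amplified, MiSeq 2 × 250 sequenced and CDR-length filtered. A clone's polyreactivity label is that of its gate of origin.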

Sequence | polyreactivity (PSR sort gate)
QVQLVESGGGLVQAGGSLRLSCAASGSIFSVYAMGWYRQAPGKERELVATITWSGGRTYYADSVKGRYTISRDNAKNTVYLQMNSLKPEDTAVYYCAATSWWATTGFDYWGQGTQVTVSS | low polyreactivity
QVQLVESGGGLVQAGGSLRLSCAASGSIFKINAMGWYRQAPGKEREWVAAITRSGGSTYYADSVKGRFTISLDNAKNTVYLQMNSLKPEDTAVYYCNASTSRSTSLSSRFYYWGQGTQVTVSS | high polyreactivity
QVQLVESGGGLVQAGGSLRLSCAASASIFDIYGMGWYRKAPGKERELVASISGGAGSTNYADSVKGRFTISRDNAKNTVYLQMNSLKPEDTAVYYCAADSADPTEYDYWGQGTQVTVSS | low polyreactivity
QVQLVESGGGLVQAGGSLRLSCAASGFIFPGNTMGWYRQAPGKERELVAAITRSGASTYYADSVKGRFTISRDNAKNTVYLQMNSLKPEDTAVYYCAERYYYGLRYPDYYYWGQGTQVTVSS | high polyreactivity
QVQLVESGGGLVQAGGSLRLSCAASGSTFVGYAMGWYRPAPGKERELVAAITIRGGSTYYADSVKGRFTISRDNAKNNVYLQMNSLKPEDTAVYYCAADYWYGGFEYWGQGTQVTVSS | low polyreactivity
QVQLVESGGGLVQAGGSLRLSCAASGFIFTIYAMGWYRQAPGKERELVAAISSGGSTTYADSVKGRFTISRDNAKNTVYLQMNSLKPEDTAVYYCNADYQYNRYSRVVGGHYVGWYGYWGQGTQVTVSS | low polyreactivity
QLQRVESGGGLVQAGGSLRLSCAASGSTFYPNAMGWYRQAPAKEREFVAAISTSAGRTYYADSVKGRFTISRDNAKNTVYLQMNSLKPEDTAVYYCNARYWVYYVYEYDSWGQGTQVTVSS | low polyreactivity
QGQLVESGGGLVQAGGSLRLSCAASGSTFGKYVMGWYRQAHGKERELVAAISRSGGSTYYADSVKGRFTISRDNAKNTVYLQLNSLKPDDTAVYYCAAYNGITSHLRFDYWGQGTQVTVSS | high polyreactivity
QVQLVESGGGLVQAGGSLRLSCAASGSTFHLYAMGWYRQAPGKEREFVAAIRGRGGNTYADSVKGRFTISRDNAKNTVYLQMNSLKPEDTAFYYCAAPLLRDLRSPYSYNYWGQGTQVTVSS | low polyreactivity
QVQLVESWGGLVQAGGSLRLSCAASRIIFRWYAMGWYRKAPGTERELVAAITSDGNTYYADSVKGRFTISRDNAKNTVYLQMNSLKPEDTAVYYCAARLSYYCRMNYWGQGTQVNVSS | high polyreactivity
QVQLVESVVGLVQAGGSLRLSSAASGSIFPYYVMGWYRQAPGKERELVAAISSRGTSTYYADSVKGRFTLSRDNAKNSVYLQMNSLKPEDTAVYYCAAAYVKFYGYSAEYDYCGQGTQVTVSS | low polyreactivity
QVQLVESGGGLVQAGGSLRLSCAASGRTFESYAMGWYRQAPGKERELVAAITWSGGDTYYADSVKGRFTISRDNAKNSVYLQMNSLKPEDTAVYYCAKEQGLYSVSPYDYWGQGSQVTVSS | low polyreactivity
QVQLVESGGGLVQAGRSLRLSCAASGITLYNYAMGWYRQAPGKERELVAAISLSGGRTYYADSVKGRFTISRDNAKNTVYLQMYSLKPEDTAVYYCAADWLNSDPYNYWGQGTQVTVSS | low polyreactivity
QVQLVESGGGLVQAGGSLRLSCAASGRIFGRYAMGWYRQAPGKERELVAAISSRGSRTYYADSVKGRFTISRDNAKNTVYLQMNSLKPEDTAVYYCAATWLSNPSDYDYWGPGTQVTVSS | high polyreactivity
QVQLVESGGGLVQAGGSLRLSCAASGFILSPNTMGWYRQAPGKERALVAAISSDVSTYADSVKGRFTISRDNAKNTVYLQMNSLKPEDTAVYYCNADAFGYASYEYWGQGTQVTVSS | low polyreactivity
QVQLVESGGGLVQAGGSLRLICAAAGRIVSYYTMGWYRQAPGKERELVAAISSGGSTNYADSVKGRFTISRDNAKNTVYLQMNSLKPEDTAVYYCAVRCGRRNYDRPAFGYWGQGTQVTVSS | high polyreactivity
QVQLVESGGGLVQAGGSLRLSCSASGLTFYSYTKGWYRQAPGKERELVAAISYSGGNTYYADSVKGRFTISRDNAKNTVYLQMNSLKQEDTAVYYCNAYFRWYWLIEYDYWGQGTQVTVSS | high polyreactivity
QVQLVDSGGGLVQAGVSLRISCAASGSTFYANAMGWYRQAPGKERELVATITSSGTSTYYGDSVKGRFTISRDNAKNTFYLQMNSLKPEDIAVYYCAAEYSLLYWEFDYWGQGTQVTVSS | low polyreactivity
QVQLVESGGGLVQAGGSLRLSCAASGRIFRGYAMGWYRQAPGKERELVAAITKRGGSTYYADSVKGRFTISRDNAKNTVYFQMNSLKPEDTAVYYCAAYLPGWELREYGYWGQGTQVTVSS | high polyreactivity
QVQLVESGGGLVQAGGSLRLSCAASGSTFQFNAMGWYRQAPGKEREFVAAITSSAGRTYYADSVKGRFTISRDNAKNTVYLQMNSLKPEDTAVYYCAATFYRRYVDLGYWGQGTQVTVSS | high polyreactivity
QVQLVESGGGLVQAGGSLRLSSAATGRTFASYAMGWYRPAPGKERELVAVITRGVRTYYADSVKGRFTISRDNAKNTVYLEMNSLKPEDTAVYYCAKERYNANYDTSLYDYWGQGTQVTVSS | low polyreactivity
QDQLVESGGGLVQAGGSLSLSCAAYGRIFSYNAMGWYRQAPGKERELVAAISYSGGRTYYADSVKGRFTISRDTAKNTVYLQMNSLKPEDTAVYYCAAEAHLAGYYRYYGGYGYDYWGQGTQVTVSS | high polyreactivity
